Test results published in patent US20240294638A1 (LES LABORATOIRES SERVIER, published 2024).

T1: CD94 homodimer (human, UniProt Q13241 32-179, limits assumed)
T1 sequence (looked up): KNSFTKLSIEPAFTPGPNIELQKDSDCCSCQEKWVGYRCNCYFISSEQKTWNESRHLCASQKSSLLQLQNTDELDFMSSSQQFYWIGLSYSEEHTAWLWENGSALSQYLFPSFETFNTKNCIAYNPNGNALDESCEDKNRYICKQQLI


Experiments:
[1] = target: T2, human NKG2A and human CD94 expressed on transiently transfected CHO-S cells (human, UniProt Q13241 1-179); test: flow cytometry, transiently transfected CHO-S cells, AF647 goat anti-human IgG secondary (MFI) [panel 23686]
T2 construct: whole, on cells; also called human NKG2A/CD94 heterodimer
Procedure: (§1) CHO-S cells were transiently transfected with human NKG2A and human CD94, human NKG2C and human CD94, cynomolgus NKG2A and cynomolgus CD94 or cynomolgus NKG2C and cynomolgus CD94 constructs. Mock transfected CHO-S cells were included in the assay as a negative control. Antibodies were tested for binding to the transfected cells in 3-fold dilutions from 30 μg/mL down to 0.5 ng/ml antibody, and 0 μg/mL antibody, and incubated for 30 min at 4° C. Following a washing step, the cells were incubated with a fluorescent goat anti-human IgG (H+L) secondary antibody (A-21445, Invitrogen) for 30 min at 4° C. in the dark. After a second wash, the cells were tested by high throughput flow cytometry (IQue screener, Sartorius). Data were transferred to Excel and graphs were generated using GraphPad Prism® software.

[2] = target: T3, human NKG2C and human CD94 expressed on transiently transfected CHO-S cells (human, UniProt P26717 1-231; Q13241 1-179); test: as above
T3 construct: whole, on cells
Procedure: as §1

[3] = target: T4, cynomolgus NKG2A and cynomolgus CD94 expressed on transiently transfected CHO-S cells (cynomolgus, UniProt Q68VD2 1-233; Q68VD4 1-179); test: as above
T4 construct: whole, on cells
Procedure: as §1

[4] = target: T5, cynomolgus NKG2C and cynomolgus CD94 expressed on transiently transfected CHO-S cells (cynomolgus); test: as above
T5 construct: whole, on cells
Procedure: as §1

[5] = target: T3, human NKG2C and human CD94 expressed on …; test: blocking of PE-conjugated HLA-E pentamer binding to transiently transfected CHO-S cells, flow cytometry (percentage binding) [cont.), panel C hNKG2C]
Procedure: (§2) CHO-S cells were transiently transfected with constructs for expression of human NKG2A and human CD94, human NKG2C and human CD94, cynomolgus NKG2A and cynomolgus CD94, or cynomolgus NKG2C and cynomolgus CD94. Mock transfected CHO-S cells were included in the assay as negative control. A PE-conjugated HLA-E pentamer was tested for binding to the heterodimers in the presence of anti-human NKG2A antibodies in 3-fold serial dilutions from 10 μg/mL down to 14 ng/mL antibody, and 0 μg/mL antibody. The antibodies were allowed to bind for 30 min at 4° C. prior to the addition of the HLA-E pentamer in a 1:50 dilution. The fluorescence intensity of HLA-E binding to the transfected cells was measured by high throughput flow cytometry (IQue screener, Sartorius). Data were transferred to Excel and graphs were generated using GraphPad Prism® software.

[6] = target: T2, human NKG2A and human CD94 expressed on …; test: flow cytometry, CHO-S cells transiently transfected with NKG2A variant and CD94, AF647 goat anti-human IgG secondary (MFI) [panel 23686]
Procedure: (§3) Six anti-human NKG2A antibodies were tested for binding to the different heterodimers expressed. Antibodies were tested for binding to the transfected cells in 3-fold serial dilutions from 1 μg/mL antibody, and 0 μg/ml antibody, and incubated for 30 min at 4° C. Following a washing step, the cells were incubated with a fluorescent goat anti-human IgG (H+L) secondary antibody (A-21445, Invitrogen) for 30 min at 4° C. in the dark. After a second wash, the cells were tested by high throughput flow cytometry (IQue screener, Sartorius). Data were transferred to Excel and graphs were generated using GraphPad Prism® software. A reference antibody analogue and an isotype control were included for comparison.

[7] = target: T3, human NKG2C and human CD94 expressed on …; test: as above
Procedure: as §3

I225M [8] = target: T6, I225M (Homo sapiens); test: as above
T6 construct: co-expressed on CHO-S cells; also called human NKG2A I225M / human CD94 heterodimer on CHO-S cells
Procedure: as §3

CD94 homodimer = target: T1, CD94 homodimer; test: SPR
Procedure: (§4) Kinetic binding analysis of anti-NKG2A monoclonal antibodies (mAbs) was performed by Surface Plasmon Resonance (SPR) using a Continuous Flow Microspotter (CFM, Wasatch Microfluidics, Salt Lake City, US) combined with an IBIS MX96 SPR instrument (IBIS Technologies, The Netherlands). The extracellular domains (ECDs) of human his-tagged NKG2A, NKG2C and FLAG-tagged CD94 were co-expressed using an Expi293™ expression system and purified by standard Ni-NTA chromatography followed by anti-Flag M2 affinity gel (A2220, Sigma). Binding kinetics were measured by capturing mAbs on a G-a-hu-IgG Fc SensEye® for 15 minutes using the CFM. After spotting, the SensEye® was positioned in the IBIS MX96 biosensor and immobilized mAbs were fixed by SensEye FixIt kit. Kinetic analysis was performed by applying a kinetic titration series injecting increasing concentrations of antigens from 1.6 nM to 400 nM as 2-fold dilutions. After each cycle of antigen injection, the surface was regenerated by 100 mM H₃PO₄, pH 3. Antigen association and dissociation were measured for 15 minutes. The recorded binding responses were fitted to a simple 1:1 binding model with Scrubber 2.0 software for calculation of the on-rate (kₒₙ or kₐ), off-rate (Koff or kd) and affinity (KD) constants. Binding kinetic parameters were measured as an average of three independent measuring points.
The binding affinities and kinetic parameters of the anti-NKG2A mAbs binding to NKG2A/CD94 and NKG2C/CD94 heterodimers are shown in Table 7. […] None of the mAbs bound to CD94 homodimer (data not shown).

[9] = target: T5, cynomolgus NKG2C and cynomolgus CD94 …; test: blocking of PE-conjugated HLA-E pentamer binding to transiently transfected CHO-S cells, flow cytometry (percentage binding) [cont.), panel D cNKG2C]
Procedure: as §2

[10] = target: T4, cynomolgus NKG2A and cynomolgus CD94 …; test: blocking of PE-conjugated HLA-E pentamer binding to transiently transfected CHO-S cells, flow cytometry (percentage binding) [panel B cNKG2A]
Procedure: as §2

[11] = target: T7, recombinant human NKG2A/CD94 heterodimer (extracellular domains) (human, UniProt Q13241 32-179); test: SPR (IBIS MX96), mAb captured on anti-human IgG Fc, ECD heterodimer injected, 1:1 fit
T7 construct: extracellular domain; ECDs co-expressed in Expi293, purified by Ni-NTA and anti-Flag; also called HuNKG2A/huCD94; NKG2A/CD94 ECDs
Procedure: as §4

[12] = target: T8, recombinant human NKG2C/CD94 heterodimer (extracellular domains) (human, UniProt P26717 94-231; Q13241 32-179); test: as above
T8 construct: extracellular domain; also called HuNKG2C/huCD94; NKG2C/CD94 ECDs
Procedure: as §4

[13] = target: T2, human NKG2A and human CD94 expressed on …; test: flow cytometry, CHO-S cells transiently transfected with NKG2A variant and CD94, AF647 goat anti-human IgG secondary (MFI) [cont.), panel 23925]
Procedure: as §3

I225M [14] = target: T6, I225M; test: as above
Procedure: as §3

[15] = target: T2, human NKG2A and human CD94 expressed on …; test: flow cytometry, transiently transfected CHO-S cells, AF647 goat anti-human IgG secondary (MFI) [cont.), panel 23925]
Procedure: as §1

[16] = target: T2, human NKG2A and human CD94 expressed on …; test: flow cytometry, transiently transfected CHO-S cells, AF647 goat anti-human IgG secondary (MFI) [panel 23566]
Procedure: as §1

[17] = target: T4, cynomolgus NKG2A and cynomolgus CD94 …; test: as above
Procedure: as §1

[18] = target: T2, human NKG2A and human CD94 expressed on …; test: flow cytometry, CHO-S cells transiently transfected with NKG2A variant and CD94, AF647 goat anti-human IgG secondary (MFI) [panel 23566]
Procedure: as §3

T7 sequence (chain, as listed by the source, chain 1 of 2, one chain of several): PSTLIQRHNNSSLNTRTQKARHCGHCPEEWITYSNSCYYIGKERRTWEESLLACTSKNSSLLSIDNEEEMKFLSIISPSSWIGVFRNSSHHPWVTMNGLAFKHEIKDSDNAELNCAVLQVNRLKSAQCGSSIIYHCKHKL
T8 sequence (P26717 94-231, chain 1 of 2, one chain of several): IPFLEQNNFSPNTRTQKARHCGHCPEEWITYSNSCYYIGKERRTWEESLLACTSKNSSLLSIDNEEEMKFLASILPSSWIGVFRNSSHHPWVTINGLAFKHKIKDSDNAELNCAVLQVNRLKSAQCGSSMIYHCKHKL
T3 sequence (P26717 whole entry, one chain of several): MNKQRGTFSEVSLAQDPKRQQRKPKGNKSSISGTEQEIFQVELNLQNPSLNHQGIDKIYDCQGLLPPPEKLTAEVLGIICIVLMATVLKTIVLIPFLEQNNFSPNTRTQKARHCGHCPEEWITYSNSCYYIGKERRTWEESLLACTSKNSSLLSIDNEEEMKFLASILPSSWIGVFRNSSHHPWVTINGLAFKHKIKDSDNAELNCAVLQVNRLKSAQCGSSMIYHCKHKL
T6 sequence (P26715 whole entry I225M): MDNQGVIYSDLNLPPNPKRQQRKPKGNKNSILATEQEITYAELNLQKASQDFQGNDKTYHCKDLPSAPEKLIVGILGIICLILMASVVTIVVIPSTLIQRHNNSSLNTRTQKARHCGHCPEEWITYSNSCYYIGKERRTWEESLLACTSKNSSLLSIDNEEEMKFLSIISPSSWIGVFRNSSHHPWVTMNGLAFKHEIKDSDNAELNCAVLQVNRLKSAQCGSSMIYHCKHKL

binding result (CD94 homodimer) | Kd [11] | koff [11] | kon [11] | Kd [12] | koff [12] | kon [12] | Binder | further results
no binding | 0.72 nM | 0.00014 s⁻¹ | 200000 M⁻¹ s⁻¹ | 3.9 nM | 0.0026 s⁻¹ | 670000 M⁻¹ s⁻¹ | antibody 23686 (antibody, human IgG1, kappa, L234A L235A, V domains shown, Fully human IgG1-LALA (L234A/L235A), kappa) VH: EVQLVESGGGLVKPGGSLRLSCAASGFTFSSYSMNWVRQAPGKGLEWVSSISSSSSYIYYADSVKGRFTISRDNAKNSLYLQMNSLRAEDTAVYYCARDEWGLLGFDSWGQGTLVTVSS VL: EIVLTQSPATLSLSPGERATLSCRASQSISNYLAWYQQKPGQAPRLLIYDASNRATGIPARFSGSGSGTDFTLTISSLEPEDFAVYYCQQRTDWPPWTFGQGTKVEIKR | EC50 (read off the curve) [1]: ~0.03 µg/mL; EC50 (read off the curve) [2]: ~0.01 µg/mL; EC50 (read off the curve) [3]: ~0.02 µg/mL; EC50 (read off the curve) [4]: ~0.02 µg/mL; IC50 (read off the curve) [5]: ~0.2 µg/mL; EC50 (read off the curve) [6]: ~0.005 µg/mL; EC50 (read off the curve) [7]: ~0.003 µg/mL; EC50 (read off the curve) (I225M [8]): ~0.007 µg/mL; IC50 (read off the curve) [9]: ~0.7 µg/mL; IC50 (read off the curve) [10]: ~0.3 µg/mL
no binding | 2.23 nM | 0.00042 s⁻¹ | 190000 M⁻¹ s⁻¹ | 68 nM | 0.0006 s⁻¹ | 8800 M⁻¹ s⁻¹ | antibody 23925 (antibody, human IgG1, kappa, L234A L235A, V domains shown, Fully human IgG1-LALA (L234A/L235A), kappa) VH: EVQLVESGGGLVQPGGSLRLSCAASGFTFSSYAMNWVRQAPGKGLEWVSTISNSGGTTYYADSVKGRFTISRDNSKDTLYLQMNSLRAEDTAVYYCAKAHYYARGYFDYWGQGTLVTVSS VL: DIQMTQSPSSVSASVGDRVTITCRASQGISSWLAWYQQKSGKAPKLLIYAASSLQIGVPSRFSGSGSGTDFTLTISSLQPEDFATYYCQQANSFPYTFGQGTKLEIKR | EC50 (read off the curve) [13]: ~0.004 µg/mL; EC50 (read off the curve) (I225M [14]): ~0.003 µg/mL; EC50 (read off the curve) [15]: ~0.02 µg/mL; binding result [10]: no binding (tested: 10000 ng/ml)
no binding | 2.5 nM | 0.0011 s⁻¹ | 420000 M⁻¹ s⁻¹ | 98 nM | 0.00083 s⁻¹ | 8500 M⁻¹ s⁻¹ | antibody 23566 (antibody, human IgG1, kappa, L234A L235A, V domains shown, Fully human IgG1-LALA (L234A/L235A), kappa; also called mAb 23566) VH: EVQLLESGGDLVQPGGSLRLSCAASGFTFDNYAMHWVRQAPGKGLEWVSTITNSGGTTYYADSVKGRFTLSRDNSKNTLYLQMNSLRAEDTAVYYCAKAHYYARGYFDFWGQGTLVTVSS VL: DIQMTQTPSSVSASVGDRVTITCRASQGISSWLAWYQQKPGKAPKLLIYAASSLQSGVPSRFSGSGSGTDFTLTISSLQPEDFATYYCQQANSFPYTFGQGTKLEIKR | EC50 (read off the curve) [16]: ~0.02 µg/mL; binding result [17]: no binding (tested: about 3300 ng/ml); EC50 (read off the curve) [18]: ~0.005 µg/mL
